This passage reports OD450 results from US20250250357A1 (NANJING ZAIMING PHARMACEUTICAL, published 2025).

Substitutions are numbered along the chain they refer to.

The labels stand for the following.
B1: S009-F3.74.20 (antibody, human IgG1, kappa, V domains shown)
VH: RVQLQQSGAELVRPGASVTLSCKASGYTFTDSEMHWVKQTPVHGLEWIGAIDPEIDGTAYNQNFRDKAILTADKSSSTAYMELRSLTSEDSAVYYCTTYFGSGYGYFDVWGTGTTVTVSS
VL: DVVMTQTPLSLSVSLGDQASISCRSSQSLVYSNGNTYLHWFLQKPGQSPKLLIYKVSNRFSGVPDRFSGSGSGTDFTLKINRVEAEDLGVYFCSQSTHIPFTFGAGTKLELKR
notes: Human-murine chimeric antibody, human IgG1/kappa constant regions
B2: S009-F3.7.3 (antibody, human IgG1, kappa, V domains shown)
VH: EVNFEESGGGLVQPGGSMKLSCVASGFTFSNYWMNWVRQSPEKGLEWVAQIRLKSDNYATHYAESVKGRFTISRDDFKSSVYLQMNNLRAEDTGIYYCTVGTGGYWGQGTTLTVSS
VL: DIVLTQSPASLAMSLGKRATISCRASESVSIVGTNVIHWFQQKPGQPPKLLIYHASNLETGVPARFSGSGSGTDFTLTIDPVEEDDVAIYHCLQSRKIPWTFGGGTKLEIKR
notes: Human-murine chimeric antibody: murine VH/VL on human IgG1 heavy chain constant region and human kappa constant region
B3: S009-F3.16.1 (antibody, human IgG1, kappa, V domains shown)
VH: B2 VH with N3K, T71S, F77S, T99S
VL: B2 VL with M13L, L15P, V32I, N35D, G72R, H91Y
notes: as for B1
B4: S009-F3-63.5 (antibody, human IgG1, kappa, V domains shown)
VH: QVQLQQSGAELVRPGASVTLSCKASGYTFTDYEMHWVKQTPVHGLEWIGGIDPETGDTAYNQQFKGKAILTADRSSSTAYMELRSLTSEDSAVYYCTNYASSREDYWGQGTTLTVSS
VL: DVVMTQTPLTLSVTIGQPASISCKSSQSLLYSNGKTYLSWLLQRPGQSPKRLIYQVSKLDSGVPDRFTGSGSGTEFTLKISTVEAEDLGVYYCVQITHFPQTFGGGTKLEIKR
notes: as for B1
B5: S009-F3.38.10 (antibody, human IgG1, kappa, V domains shown)
VH: EVQLQQSGPVLVKPGASVKMSCEASGYIFTDYYMNWVKKSHGKSLEWIGVINPKNGVISHNQKFKGKATLTVDKSSNTAYMELSSLTSEDSAVYYCANYGSRFYAMDYWGQGTSVTVSS
VL: DVVMTQTPLSLPVSLGDQASISCRSSQSLIHSDGNTYLQWYLQKSGQSPKLLIYKVSNRFSGVPDRFSGSGSGTDFTLKISRVETEDLGVYFCSQTTHVPFTFGSGTKLEIKR
notes: as for B1

T2 sequence (Q13421 495-606): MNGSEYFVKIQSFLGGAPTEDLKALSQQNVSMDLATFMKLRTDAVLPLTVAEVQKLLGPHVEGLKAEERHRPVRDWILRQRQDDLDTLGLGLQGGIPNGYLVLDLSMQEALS

One assay deals with T1, human MSLN-R2-his protein (human, UniProt Q13421 391-486).
T1 construct: also called human MSLN-R2 protein; hMSLN-R2-his; not shown: His tag
T1 sequence (Q13421 other isoform, or with tags, fused parts or gaps): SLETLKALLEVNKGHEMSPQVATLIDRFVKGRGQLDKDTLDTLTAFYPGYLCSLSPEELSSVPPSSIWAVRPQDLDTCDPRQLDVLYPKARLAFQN
Briefly: ELISA, coated antigen; antibody 1 nM. (In general: An ELISA detects its analyte on a solid surface through an enzyme-linked reagent.)
The molecule B1 registered an OD450 of 0.09 OD450.

In turn, B2 came in with an OD450 of 0.07 OD450.

B3: the OD450 is 0.06 OD450.

For the molecule B4, the OD450 was 0.05 OD450.

As for B5, the OD450 amounted to 0.21 OD450.

The next assay addresses T2, human MSLN-R3-his protein (human, UniProt Q13421 487-598).
T2 construct: also called human MSLN-R3 protein; hMSLN-R3-his; not shown: His tag
Nature of the assay: ELISA, coated antigen; antibody 1 nM.
In turn, B1 registered an OD450 of 1.88 OD450.

Molecule B2 came in with an OD450 of 1.63 OD450.

B3 gave an OD450 of 1.8 OD450.

B4 gave an OD450 of 1.78 OD450.

For B5, the OD450 stood at 1.71 OD450.

The target in another assay is T3, human MSLN-R3-3 polypeptide (human).
T3 construct: also called human MSLN-R3-3 protein; hMSLN-R3-3
Briefly: ELISA, coated antigen; antibody 1 nM.
Description: (§1) The plate was sealed with a plastic film and incubated at 4° C. overnight. The next day, the plate was washed twice with PBST, and a blocking buffer [PBS+2% (w/w) BSA] was added for blocking at room temperature for 2 h. The blocking buffer was discarded, and a chimeric antibody or negative control antibody serially diluted from 100 nM was added at 50 μL/well. After incubation at 37° C. for 2 h, the plate was washed 3 times with PBST. […] After incubation at 37° C. for 2 h, the plate was washed 5 times with PBST. A TMB substrate was added at 50 μL/well for incubation at room temperature for 5-10 min, and then a stop solution (1.0 N HCl) was added at 50 μL/well.
B1 had an OD450 of 1.83 OD450.

For B2, the OD450 was found to be 0.07 OD450.

In the case of B3, the OD450 turned out to be 0.07 OD450.

On to B4, for which the OD450 stood at 1.75 OD450.

As for B5, the OD450 amounted to 0.08 OD450.

A further assay concerns the target T1, human MSLN-R2-his protein. Nature of the assay: ELISA, coated antigen; antibody 10 nM.
Description: as §1
In the case of B1, the OD450 was 0.17 OD450.

As to B2, the OD450 came out at 0.09 OD450.

For B3, the OD450 is 0.08 OD450.

B4 gave an OD450 of 0.07 OD450.

The molecule B5 registered an OD450 of 0.18 OD450.

The next assay concerns the target T2, human MSLN-R3-his protein. Briefly: ELISA, coated antigen; antibody 10 nM.
Description: as §1
Molecule B1 returned an OD450 of 1.83 OD450.

Take B2: the OD450 came out at 1.74 OD450.

Turning to B3, the OD450 turned out to be 1.91 OD450.

As to B4, the OD450 was 1.98 OD450.

Take B5: the OD450 was 1.85 OD450.

In a further assay the target is T3, human MSLN-R3-3 polypeptide. Briefly: ELISA, coated antigen; antibody 10 nM.
Description: as §1
Regarding B1, the OD450 was determined as 1.9 OD450.

B2: the OD450 was 0.08 OD450.

In turn, B3 registered an OD450 of 0.08 OD450.

The molecule B4 displayed an OD450 of 1.95 OD450.

Molecule B5 showed an OD450 of 0.1 OD450.

For another assay, the target named is T1, human MSLN-R2-his protein. Nature of the assay: ELISA, coated antigen; antibody 0.1 nM.
Description: as §1
Molecule B1 had an OD450 of 0.06 OD450.

Turning to B2, the OD450 is 0.07 OD450.

The molecule B3 came in with an OD450 of 0.18 OD450.

Consider B4, for which the OD450 turned out to be 0.05 OD450.

On to B5, for which the OD450 was found to be 0.18 OD450.

The target of another assay is T1, human MSLN-R2-his protein. Nature of the assay: ELISA, coated antigen; antibody 100 nM.
Description: as §1
B1 gave an OD450 of 0.09 OD450.

As to B2, the OD450 was 0.12 OD450.

Molecule B3 yielded an OD450 of 0.12 OD450.

B4 gave an OD450 of 0.09 OD450.

Take B5: the OD450 was determined as 0.13 OD450.

A further assay addresses T2, human MSLN-R3-his protein. Briefly: ELISA, coated antigen; antibody 0.1 nM.
Description: as §1
Take B1: the OD450 turned out to be 1.07 OD450.

Molecule B2 yielded an OD450 of 1.13 OD450.

For the molecule B3, the OD450 is 1.61 OD450.

As for B4, the OD450 was found to be 1.43 OD450.

As for B5, the OD450 turned out to be 1.47 OD450.

The target of another assay is T2, human MSLN-R3-his protein. Nature of the assay: ELISA, coated antigen; antibody 100 nM.
Description: as §1
As for B1, the OD450 turned out to be 2.06 OD450.

Molecule B2 yielded an OD450 of 2.16 OD450.

B3 had an OD450 of 1.92 OD450.

Turning to B4, the OD450 worked out at 2.36 OD450.

For the molecule B5, the OD450 was found to be 2.05 OD450.

A further assay deals with T3, human MSLN-R3-3 polypeptide. Nature of the assay: ELISA, coated antigen; antibody 0.1 nM.
Description: as §1
In turn, B1 registered an OD450 of 0.96 OD450.

Turning to B2, the OD450 amounted to 0.07 OD450.

As for B3, the OD450 came out at 0.08 OD450.

In turn, B4 gave an OD450 of 1.46 OD450.

As to B5, the OD450 worked out at 0.08 OD450.

The target is the same in another assay. Briefly: ELISA, coated antigen; antibody 100 nM.
Description: as §1
Consider B1, for which the OD450 worked out at 2.07 OD450.

Regarding B2, the OD450 was 0.11 OD450.

Turning to B3, the OD450 turned out to be 0.11 OD450.

Take B4: the OD450 was found to be 2.3 OD450.

B5 registered an OD450 of 0.32 OD450.

The next assay concerns the target T1, human MSLN-R2-his protein. Briefly: ELISA, coated antigen; antibody 0.01 nM.
Description: as §1
For B1, the OD450 worked out at 0.06 OD450.

For B2, the OD450 turned out to be 0.06 OD450.

B3 yielded an OD450 of 0.06 OD450.

For B4, the OD450 worked out at 0.05 OD450.

B5: the OD450 turned out to be 0.11 OD450.

For a further assay, the target named is T2, human MSLN-R3-his protein. Nature of the assay: ELISA, coated antigen; antibody 0.01 nM.
Description: as §1
The molecule B1 had an OD450 of 0.29 OD450.

Take B2: the OD450 was found to be 0.43 OD450.

With B3, the OD450 is 0.65 OD450.

With B4, the OD450 is 0.41 OD450.

B5 gave an OD450 of 0.41 OD450.

The next assay has as its target T3, human MSLN-R3-3 polypeptide. Nature of the assay: ELISA, coated antigen; antibody 0.01 nM.
Description: as §1
In turn, B1 had an OD450 of 0.21 OD450.

In turn, B2 displayed an OD450 of 0.07 OD450.

B3 yielded an OD450 of 0.07 OD450.

As to B4, the OD450 was 0.4 OD450.

B5: the OD450 came to 0.08 OD450.

The next assay has as its target T1, human MSLN-R2-his protein. Nature of the assay: ELISA, coated antigen; antibody 0.001 nM.
Description: as §1
Turning to B1, the OD450 was determined as 0.06 OD450.

As to B2, the OD450 turned out to be 0.07 OD450.

With B3, the OD450 turned out to be 0.06 OD450.

Consider B4, for which the OD450 came to 0.05 OD450.

Take B5: the OD450 was 0.06 OD450.

The next assay has as its target T2, human MSLN-R3-his protein. Nature of the assay: ELISA, coated antigen; antibody 0.001 nM.
Description: as §1
On to B1, for which the OD450 is 0.1 OD450.

For B2, the OD450 was determined as 0.11 OD450.

Molecule B3 showed an OD450 of 0.15 OD450.

Turning to B4, the OD450 was 0.1 OD450.

Molecule B5 registered an OD450 of 0.12 OD450.

Another assay has as its target T3, human MSLN-R3-3 polypeptide. Briefly: ELISA, coated antigen; antibody 0.001 nM.
Description: as §1
In the case of B1, the OD450 came to 0.09 OD450.

For B2, the OD450 worked out at 0.07 OD450.

Consider B3, for which the OD450 is 0.08 OD450.

In turn, B4 yielded an OD450 of 0.1 OD450.

In turn, B5 came in with an OD450 of 0.08 OD450.

For a further assay, the target named is T1, human MSLN-R2-his protein. Briefly: ELISA, coated antigen; antibody 0.0001 nM.
Description: as §1
In turn, B1 displayed an OD450 of 0.06 OD450.

B2 displayed an OD450 of 0.07 OD450.

The molecule B3 displayed an OD450 of 0.06 OD450.

B4 had an OD450 of 0.06 OD450.

B5: the OD450 came out at 0.07 OD450.

The target of a further assay is T2, human MSLN-R3-his protein. Briefly: ELISA, coated antigen; antibody 0.0001 nM.
Description: as §1
In the case of B1, the OD450 is 0.07 OD450.

Turning to B2, the OD450 came out at 0.07 OD450.

As for B3, the OD450 came out at 0.08 OD450.

As to B4, the OD450 was determined as 0.06 OD450.

B5 displayed an OD450 of 0.08 OD450.

A further assay deals with T3, human MSLN-R3-3 polypeptide. Nature of the assay: ELISA, coated antigen; antibody 0.0001 nM.
Description: as §1
Regarding B1, the OD450 was 0.07 OD450.

For B2, the OD450 is 0.07 OD450.

B3 came in with an OD450 of 0.07 OD450.

Molecule B4 had an OD450 of 0.07 OD450.

With B5, the OD450 is 0.07 OD450.

The target of another assay is T1, human MSLN-R2-his protein. Briefly: ELISA, coated antigen; no antibody (blank, column 'none').
Description: as §1
Turning to B1, the OD450 stood at 0.07 OD450.

B2 yielded an OD450 of 0.08 OD450.

B3 came in with an OD450 of 0.08 OD450.

Molecule B4 returned an OD450 of 0.07 OD450.

B5: the OD450 is 0.08 OD450.

For another assay, the target named is T2, human MSLN-R3-his protein. The assay is described as above.
Description: as §1
Take B1: the OD450 was determined as 0.09 OD450.

For the molecule B2, the OD450 came to 0.08 OD450.

In turn, B3 returned an OD450 of 0.09 OD450.

The molecule B4 had an OD450 of 0.06 OD450.

For the molecule B5, the OD450 came to 0.09 OD450.

The target in another assay is T3, human MSLN-R3-3 polypeptide. The assay is described as above.
Description: as §1
B1 displayed an OD450 of 0.07 OD450.

The molecule B2 showed an OD450 of 0.08 OD450.

B3 displayed an OD450 of 0.08 OD450.

In the case of B4, the OD450 is 0.07 OD450.

With B5, the OD450 is 0.07 OD450.
